Reference: patent US11413337B2, “Peptide conjugated particles for the treatment of inflammation” (Northwestern University, priority 2012, dated 2022)
Where no end group is shown, it is not given here.

Tested on: spleen, liver and lung; macrophages
Test: detection and cellular localisation of particles after iv administration
Conditions: 24 hours after intravenous infusion

Question: Which “cells taking up particles” value does the source give for “TAMRA-labeled PLP139-151-coupled particles: particles coupled with TAMRA-labeled PLP139-151 (CHCLGKWLGHPDK; cysteine pairing not given here; also: TAMRA label, position not given here, coupled to particles; UniProt P60202 139-151, looked up, fragment)” here?
Answer: marginal zone macrophages predominantly uptake
